Biological target: SARS-CoV-1 spike (S) receptor binding domain (SARS-CoV-1)
Experiment: SPR

Substance	koff [s⁻¹]
VHH-72-Fc L97W (Fc fusion)	0.00018
VHH-72-Fc L97W,T99V (Fc fusion)	8e-05
VHH-72-Fc S56M (Fc fusion)	0.00025
VHH-72-Fc S56M,T99V (Fc fusion)	0.00016
VHH-72-Fc S56M,L97W (Fc fusion)	0.0002
VHH-72-Fc T99V (Fc fusion)	0.00012
VHH-72-Fc S56M,L97W,T99V (Fc fusion)	0.00013

Source: paper PMC8967028
